This passage reports Plaques/10^6 PBMC (anti-SRBC antibody formation, hemolytic plaque assay) (Plaques/10^6 PBMC) results from patent US5726286.

Like-named read-outs stand apart in the source and are kept apart here.

For experiment [1], the target named is human MHC class II β chain (human).
For experiment [2] the target is unchanged. The source holds these as a separate data set.

Take IL-4 receptor/Fc fusion protein: the Plaques/10^6 PBMC (anti-SRBC antibody formation, hemolytic plaque assay) (Plaques/10^6 PBMC) in experiment [1] is 788. Tie/Fc (Fc fusion) returned a Plaques/10^6 PBMC (anti-SRBC antibody formation, hemolytic plaque assay) (Plaques/10^6 PBMC) in experiment [2] of 606. Regarding BZLF2/Fc fusion protein, in experiment [1], the Plaques/10^6 PBMC (anti-SRBC antibody formation, hemolytic plaque assay) (Plaques/10^6 PBMC) came to 0.
